B1: Azoarcus group I ribozyme (parent)
chain: GUGCCUUGCGCCGGGAAACCACGCAAGGGAUGGUGUCAAAUUCGGCGAAACCUAAGCGCCCGCCCGGGCGUAUGGCAACGCCGAGCCAAGCUUCGGCGCCUGCGCCGAUGAAGGUGUAGAGACUAGACGGCACCCACCUAAGGCAAACGCUAUGGUGAAGGCAUAGUCCAGGGAGUGGCGAAAGUCACACAAACCGG

In the data set the parent is B1. Put plainly: reverse-splicing fitness (ratio to wild type); higher = more active; in vitro selection; Mg2+ level not given. A digest of the protocol:
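An in vitro group I ribozyme library with randomized positions was T7-transcribed and gel-purified. In triplicate, 10 pmol RNA in EPPS pH 7.5 was reacted with 50 pmoles of a 30-nt RNA substrate for 1 h at 37 °C across several added MgCl2 levels (1–48 mM), then stopped with EDTA. Products were reverse transcribed from a substrate-complementary primer, PCR-amplified and sequenced (HiSeq 4000). Fitness is a variant's read proportion after selection over that before, normalised to wild type.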
In the case of GUGCCUUGCGCCGGGAAACCACGCAAGGGAUGGUGUCAAAUUCGGCGAAACCUAAGCGCCCGCCCGGGCGUAUGGCAACGCCGAGCCAAGCUUCGGCGCCUGCGCCGAUGGAGGUGUAGUGACUAGACGGCACCCACCUAAGGCUAACGGUAUGGUGAAGGCAUAGUCGAGGGAGAGGCGAAAGUCACACAAACCGG, the reverse-splicing fitness is 0.00284.
Next, GUGCCUUGCGCCGGGAAACCACGCAAGGGAUGGUGUCAAAUUCGGCGAAACCUAAGCGCCCGCCCGGGCGUAUGGCAACGCAGAGCCAAGCUUCGGCGCCUGCGCCGAUGAAGGUGUAGCGACUAGACGGCACCCACCUAAGGCAAACGGUAUGGUGAAGGCAUAGUCAAGGGAGCGGCGAAAGUCACACAAACCGG: 0.0129.
In the case of GUGCCUUGCGCCGGGAAACCACGCAAGGGAUGGUGUCAAAUUCGGCGAAACCUAAGCGCCCGCCCGGGCGUAUGGCAACGCGGAGCCAAGCUUCGGCGCCUGCGCCGAUGCAGGUGUAGCGACUAGACGGCACCCACCUAAGGCCAACGAUAUGGUGAAGGCAUAGUCCAGGGAGAGGCGAAAGUCACACAAACCGG it was 0.00989; in that of GUGCCUUGCGCCGGGAAACCACGCAAGGGAUGGUGUCAAAUUCGGCGAAACCUAAGCGCCCGCCCGGGCGUAUGGCAACGCCGAGCCAAGCUUCGGCGCCUGCGCCGAUGCAGGUGUAGAGACUAGACGGCACCCACCUAAGGCAAACGGUAUGGUGAAGGCAUAGUCUAGGGAGCGGCGAAAGUCACACAAACCGG, 0.014.
Next, GUGCCUUGCGCCGGGAAACCACGCAAGGGAUGGUGUCAAAUUCGGCGAAACCUAAGCGCCCGCCCGGGCGUAUGGCAACGCCGAGCCAAGCUUCGGCGCCUGCGCCGAUGGAGGUGUAGGGACUAGACGGCACCCACCUAAGGCGAACGAUAUGGUGAAGGCAUAGUCUAGGGAGGGGCGAAAGUCACACAAACCGG: 0.00605; GUGCCUUGCGCCGGGAAACCACGCAAGGGAUGGUGUCAAAUUCGGCGAAACCUAAGCGCCCGCCCGGGCGUAUGGCAACGCCGAGCCAAGCUUCGGCGCCUGCGCCGAUGUAGGUGUAGAGACUAGACGGCACCCACCUAAGGCCAACGUUAUGGUGAAGGCAUAGUCUAGGGAGUGGCGAAAGUCACACAAACCGG: 0.0312; GUGCCUUGCGCCGGGAAACCACGCAAGGGAUGGUGUCAAAUUCGGCGAAACCUAAGCGCCCGCCCGGGCGUAUGGCAACGCAGAGCCAAGCUUCGGCGCCUGCGCCGAUGUAGGUGUAGCGACUAGACGGCACCCACCUAAGGCUAACGGUAUGGUGAAGGCAUAGUCAAGGGAGCGGCGAAAGUCACACAAACCGG: 0.0116.
In the case of GUGCCUUGCGCCGGGAAACCACGCAAGGGAUGGUGUCAAAUUCGGCGAAACCUAAGCGCCCGCCCGGGCGUAUGGCAACGCCGAGCCAAGCUUCGGCGCCUGCGCCGAUGAAGGUGUAGCGACUAGACGGCACCCACCUAAGGCGAACGAUAUGGUGAAGGCAUAGUCCAGGGAGCGGCGAAAGUCACACAAACCGG, the reverse-splicing fitness worked out at 0.271.
In the case of GUGCCUUGCGCCGGGAAACCACGCAAGGGAUGGUGUCAAAUUCGGCGAAACCUAAGCGCCCGCCCGGGCGUAUGGCAACGCCGAGCCAAGCUUCGGCGCCUGCGCCGAUGGAGGUGUAGGGACUAGACGGCACCCACCUAAGGCCAACGCUAUGGUGAAGGCAUAGUCUAGGGAGAGGCGAAAGUCACACAAACCGG it was 0.0733; in that of GUGCCUUGCGCCGGGAAACCACGCAAGGGAUGGUGUCAAAUUCGGCGAAACCUAAGCGCCCGCCCGGGCGUAUGGCAACGCAGAGCCAAGCUUCGGCGCCUGCGCCGAUGAAGGUGUAGUGACUAGACGGCACCCACCUAAGGCCAACGUUAUGGUGAAGGCAUAGUCGAGGGAGUGGCGAAAGUCACACAAACCGG, 0.00276.
In the case of GUGCCUUGCGCCGGGAAACCACGCAAGGGAUGGUGUCAAAUUCGGCGAAACCUAAGCGCCCGCCCGGGCGUAUGGCAACGCGGAGCCAAGCUUCGGCGCCUGCGCCGAUGUAGGUGUAGAGACUAGACGGCACCCACCUAAGGCCAACGAUAUGGUGAAGGCAUAGUCAAGGGAGCGGCGAAAGUCACACAAACCGG it was 0.00716.
For GUGCCUUGCGCCGGGAAACCACGCAAGGGAUGGUGUCAAAUUCGGCGAAACCUAAGCGCCCGCCCGGGCGUAUGGCAACGCUGAGCCAAGCUUCGGCGCCUGCGCCGAUGCAGGUGUAGGGACUAGACGGCACCCACCUAAGGCGAACGGUAUGGUGAAGGCAUAGUCUAGGGAGGGGCGAAAGUCACACAAACCGG, the reverse-splicing fitness was 0.00643.
In the case of GUGCCUUGCGCCGGGAAACCACGCAAGGGAUGGUGUCAAAUUCGGCGAAACCUAAGCGCCCGCCCGGGCGUAUGGCAACGCAGAGCCAAGCUUCGGCGCCUGCGCCGAUGAAGGUGUAGCGACUAGACGGCACCCACCUAAGGCGAACGGUAUGGUGAAGGCAUAGUCGAGGGAGAGGCGAAAGUCACACAAACCGG it was 0.013.
With GUGCCUUGCGCCGGGAAACCACGCAAGGGAUGGUGUCAAAUUCGGCGAAACCUAAGCGCCCGCCCGGGCGUAUGGCAACGCAGAGCCAAGCUUCGGCGCCUGCGCCGAUGCAGGUGUAGGGACUAGACGGCACCCACCUAAGGCAAACGCUAUGGUGAAGGCAUAGUCCAGGGAGCGGCGAAAGUCACACAAACCGG, the reverse-splicing fitness came to 0.0255.
Next, GUGCCUUGCGCCGGGAAACCACGCAAGGGAUGGUGUCAAAUUCGGCGAAACCUAAGCGCCCGCCCGGGCGUAUGGCAACGCGGAGCCAAGCUUCGGCGCCUGCGCCGAUGUAGGUGUAGGGACUAGACGGCACCCACCUAAGGCUAACGAUAUGGUGAAGGCAUAGUCCAGGGAGAGGCGAAAGUCACACAAACCGG: 0.0108.

For the origin of these results see the RNAGym collection of RNA variant scans (doi:10.1093/molbev/msab373).
